The target of experiment [1] is T1, recombinantly expressed human TfR1 extracellular domain with a His tag (rTfR1-ECD, ACRO Biosystems) (human, UniProt P02786 89-760).
T1 construct: extracellular domain; Bought reagent; also called 6His-tagged rTfR1-ECD; extracellular domain of TfR1
Description: BLI (Octet QK), 10 nM mAb loaded on anti-mouse Fc sensors; same value printed in the rows 20, 8, 3.2 and 1.28 nM rTfR1-ECD; kon Error 2.12E+04, Full R^2 0.989. On the technique in general: Biolayer interferometry detects binding as a change in optical thickness at a sensor tip.

For experiment [2], the target named is T1, recombinantly expressed human TfR1 …. Description: BLI (Octet QK), 50 nM mAb loaded on anti-mouse Fc sensors; same value printed in the rows 20, 8, 3.2 and 1.28 nM rTfR1-ECD; koff Error blank.
Experiment [3] shares this target. As to the kind of experiment: direct ELISA, plate coated with 0.1 µg/mL rTfR1-ECD, detection anti-mouse IgG Fc-HRP. The protocol: The plate was coated with 0.1 μg/mL of purified rTfR1-ECD containing a C-terminal 6×His tag. A mouse anti-6×His mAb and an isotype control Ab were used as positive and negative controls, respectively. All the primary antibodies were in 3-fold serial dilutions with a starting concentration of 3 μg/mL. Peroxidase AffiniPure Goat Anti-Mouse IgG Fey at 1:6,000 dilution was used for detection.
3,3′,5,5′-Tetramethylbenzidine (TMB) substrate was added and absorbance at 450 nm of wavelength was measured using a SpectraMax microplate reader (Molecular Device, San Jose, Calif.).
For orientation: An ELISA detects its analyte on a solid surface through an enzyme-linked reagent.

In experiment [4] the target is T2, human TfR1-GFP fusion protein (rTfR1-GFP) expressed on the membrane of CHO-DG44 cells (human, UniProt P02786 1-760).
T2 construct: whole, on cells; also called CHO/rTfR1-GFP cells; CHO/rTfR-GFP cells; not shown: GFP (also called EGFP) fused in frame to the C-terminus
T2 sequence (P02786 whole entry, the tested form may be a part): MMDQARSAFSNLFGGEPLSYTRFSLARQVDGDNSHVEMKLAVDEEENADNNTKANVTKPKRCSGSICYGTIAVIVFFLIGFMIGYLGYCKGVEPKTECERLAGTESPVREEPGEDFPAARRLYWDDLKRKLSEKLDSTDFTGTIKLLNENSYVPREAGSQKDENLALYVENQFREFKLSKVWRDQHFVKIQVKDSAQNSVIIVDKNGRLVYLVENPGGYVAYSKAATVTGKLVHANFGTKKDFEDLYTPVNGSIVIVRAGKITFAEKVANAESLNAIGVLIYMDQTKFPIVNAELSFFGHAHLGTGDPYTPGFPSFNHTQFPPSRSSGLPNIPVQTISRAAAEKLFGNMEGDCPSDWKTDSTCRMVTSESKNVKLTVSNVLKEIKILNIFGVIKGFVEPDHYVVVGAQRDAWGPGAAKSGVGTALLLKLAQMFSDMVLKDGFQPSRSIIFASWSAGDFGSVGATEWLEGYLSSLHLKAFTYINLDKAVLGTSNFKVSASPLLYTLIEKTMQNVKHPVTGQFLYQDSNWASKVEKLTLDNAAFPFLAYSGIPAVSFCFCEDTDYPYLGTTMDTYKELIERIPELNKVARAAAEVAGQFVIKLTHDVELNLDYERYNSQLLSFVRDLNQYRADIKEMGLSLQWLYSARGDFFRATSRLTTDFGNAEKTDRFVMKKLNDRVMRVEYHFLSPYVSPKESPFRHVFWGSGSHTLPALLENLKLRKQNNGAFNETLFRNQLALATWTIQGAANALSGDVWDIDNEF
Description: FACS titration on CHO/rTfR1-GFP cells. From the text:
The cDNA was in-frame fused with a GFP-coding DNA fragment to its C-terminus and then cloned into an in-house expression vector containing the human CMV promoter and a puromycin resistant gene (PuroR) for selection. […] CHO cell colonies stably expressing high-level EGFP were isolated and subcloned.

For experiment [5], the target named is T1, recombinantly expressed human TfR1 …. As to the kind of experiment: BLI (Octet QK), 10 nM mAb loaded on anti-mouse Fc sensors; same value printed in the rows 20, 8, 3.2 and 1.28 nM rTfR1-ECD; koff Error blank.
Experiment [6] has the same target. As to the kind of experiment: BLI (Octet QK), mAb captured on anti-mouse Fc (AMC) biosensors, rTfR1-ECD in solution.
Experiment [7] has the same target. As to the kind of experiment: BLI (Octet QK), 50 nM mAb loaded on anti-mouse Fc sensors; same value printed in the rows 20, 8, 3.2 and 1.28 nM rTfR1-ECD; kon Error 9.80E+03, Full R^2 0.9909.
The target is the same in experiment [8]. Description: BLI (Octet QK), 10 nM cAb loaded on anti-human Fc sensors; same value printed in the rows 50, 20, 8, 3.2 and 1.28 nM rTfR1-ECD; koff Error blank. Here is the method:
(§1) Concentrations of rTfR1-ECD ranged from 50 nM to 1.28 nM by 2.5-fold serial dilutions.

Experiment [9] has the same target. Description: BLI (Octet QK), 50 nM cAb loaded on anti-human Fc sensors; same value printed in the rows 50, 20, 8, 3.2 and 1.28 nM rTfR1-ECD; koff Error blank. The protocol: as §1
Experiment [10] shares this target. Description: BLI (Octet QK), cAb captured on anti-human Fc (AHC) biosensors, rTfR1-ECD 50 nM to 1.28 nM in solution. Here is the method: as §1
The target is the same in experiment [11]. As to the kind of experiment: BLI (Octet QK), 10 nM cAb loaded on anti-human Fc sensors; same value printed in the rows 50, 20, 8, 3.2 and 1.28 nM rTfR1-ECD; kon Error 5.18E+03, Full R^2 0.9885. Here is the method:
as §1

For experiment [12] the target is unchanged. As to the kind of experiment: BLI (Octet QK), 50 nM cAb loaded on anti-human Fc sensors; same value printed in the rows 50, 20, 8, 3.2 and 1.28 nM rTfR1-ECD; kon Error 2.34E+03, Full R^2 0.9963. Here is the method: as §1

Where “and” joins values, the source holds several entries; their conditions need not be identical. Equal values may be shown once.

Results on three molecules are retold here after patent publication US20230174663A1 (MEDABOME, published 2023).

A word on the kon: it is the rate constant with which the complex forms. The term koff denotes the rate constant with which the complex falls apart. Broadly, the EC50 (read off the curve) is the concentration needed to bring the measured effect to its halfway point. As a reminder, the IC50 is the concentration needed to halve the response being measured. A high value points to weaker potency in that assay. The term Kd denotes the constant that tells how readily two partners part at equilibrium.

T1 sequence (P02786 other isoform, or with tags, fused parts or gaps): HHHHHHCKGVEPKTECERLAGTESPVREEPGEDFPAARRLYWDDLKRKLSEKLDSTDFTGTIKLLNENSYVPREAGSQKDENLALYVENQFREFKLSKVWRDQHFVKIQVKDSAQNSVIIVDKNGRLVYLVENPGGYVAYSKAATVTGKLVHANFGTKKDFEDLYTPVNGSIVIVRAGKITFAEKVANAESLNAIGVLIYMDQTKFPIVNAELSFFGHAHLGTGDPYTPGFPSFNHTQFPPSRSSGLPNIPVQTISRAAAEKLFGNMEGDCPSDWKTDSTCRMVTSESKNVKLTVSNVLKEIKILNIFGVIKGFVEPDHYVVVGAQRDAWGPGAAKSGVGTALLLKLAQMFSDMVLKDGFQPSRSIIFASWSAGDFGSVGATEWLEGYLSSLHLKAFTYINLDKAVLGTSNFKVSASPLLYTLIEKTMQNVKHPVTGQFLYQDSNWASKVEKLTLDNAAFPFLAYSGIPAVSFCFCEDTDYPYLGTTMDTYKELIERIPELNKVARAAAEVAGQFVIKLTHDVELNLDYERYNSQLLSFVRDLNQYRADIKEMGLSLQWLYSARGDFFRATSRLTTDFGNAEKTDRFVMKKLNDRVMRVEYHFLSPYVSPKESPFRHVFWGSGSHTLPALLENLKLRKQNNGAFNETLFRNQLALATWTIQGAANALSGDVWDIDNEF

B1: MAb11-22.1 mAb (antibody, IgG1, V domains shown)
VH: EVQLQQSGPELVKPGASVRISCKTSGYTFTNYYIHWMKQRPGQGLEWIGWIYPGDGNSHYNEKFKGKTTLTADKSSSTGYILLSSLTSEDSAVYFCTRDYDNYGGFAYWGQGTLVTVSA
VL: IVMTQSPSSLTVTAGEKVTMSCKSSQSLLNSGNQKNYLTWYQQKPGQPPKLLIYWASTWESRVPDHFTGSGSGTDFTLTISSVQAEDLAVYYCQNDYSYPLTFGAGTKLELKR
notes: Mouse hybridoma antibody, IgG1/kappa; both are kept under this molecule
Turning to B1, the kon in experiment [1] was found to be 1.16e+06 M⁻¹ s⁻¹; in [7], 604000 M⁻¹ s⁻¹. The koff in [2] and in [5] was under 1e-07 s⁻¹ in each case. For the same molecule, the “EC50 (read off the curve)” value in experiment [3] is about 0.04 µg/mL. The IC50 in experiment [4] is 0.03 µg/mL and 0.04 µg/mL. Also, in [6], the Kd was under 1 pM.

B2: MAb11-22.1 chimeric Ab (cAb) (antibody, V domains shown)
VH: EVQLQQSGPELVKPGASVRISCKTSGYTFTNYYIHWMKQRPGQGLEWIGWIYPGDGNSHYNEKFKGKTTLTADKSSSTGYILLSSLTSEDSAVYFCTRDYDNYGGFAYWGQGTLVTVSA
VL: IVMTQSPSSLTVTAGEKVTMSCKSSQSLLNSGNQKNYLTWYQQKPGQPPKLLIYWASTWESRVPDHFTGSGSGTDFTLTISSVQAEDLAVYYCQNDYSYPLTFGAGTKLELKR
notes: not shown: constant region of human IgG1 heavy chain (CH1-CH3); constant region of human kappa light chain (CL)
Consider B2, for which the koff in [8] and in experiment [9] was under 1e-07 s⁻¹ each time. Besides, the Kd in [10] was under 1 pM. Besides, the kon was 244000 M⁻¹ s⁻¹ in experiment [11] and 196000 M⁻¹ s⁻¹ in experiment [12].

B3: anti-human TfR1 control mAb (R&D Systems) (antibody, V domains shown)
VH: QVQLQQSGPELVKPGASVKMSCKASGYTFTNYYIHWVKQRPGQGLEWIGWIYPGDGSTKYNEKFKGKTTLTADKSSSTAYMLLSSLTSEDSAIYFCARDGSSAPKFTYWGQGTLVTVSA
VL: DIVMTQSPSSLTVTAGEKVTMRCKSSQSLLNSGNQKNYLTWYQQKPGQPPKLLIYWASTRESGVPDRFTGSGSGTDFTLTISSVQAEDLAVYYCQNDYSYPLTFGAGTKLELK
As for B3, the IC50 in experiment [4] is about 0.1 µg/mL.
